From article PMC5821828, “A Genetic Screen for Investigating the Human Lysosomal CystineTransporter, Cystinosin” (Scientific Reports, 2018)

B1: CTNS-Δgydql (Homo sapiens; G197R) (protein)
chain: SVSLTVPPVVKLENGSSTNVSLTLRPPLNATLVITFEITFRSKNITILELPDEVVVPPGVTNSSFQVTSQNVGQLTVYLHGNHSNQTGPRIRFLVIRSSAISIINQVIGWIYFVAWSISFYPQVIMNWRRKSVIGLSFDFVALNLTGFVAYSVFNIGLLWVPYIKEQFLLKYPNRVNPVNSNDVFFSLHAVVLTLIIIVQCCLYERGGQRVSWPAIGFLVLAWLFAFVTMIVAAVGVTTWLQFLFCFSYIKLAVTLVKYFPQAYMNFYYKSTEGWSIGNVLLDFTGGSFSLLQMFLQSYNNDQWTLIFGDPTKFGLGVFSIVFDVVFFIQHFCLYRKRP
notes: lacks C-terminal GYDQLN (lysosomal targeting motif; Y363 and L366), untagged, p416TEF (ABE 3513), expressed in S. cerevisiae vps1Δvps17Δ (ABC 5017)
B2: CTNS-Δgydql (Homo sapiens; G131S) (protein)
chain: SVSLTVPPVVKLENGSSTNVSLTLRPPLNATLVITFEITFRSKNITILELPDEVVVPPGVTNSSFQVTSQNVGQLTVYLHGNHSNQTGPRIRFLVIRSSAISIINQVISWIYFVAWSISFYPQVIMNWRRKSVIGLSFDFVALNLTGFVAYSVFNIGLLWVPYIKEQFLLKYPNGVNPVNSNDVFFSLHAVVLTLIIIVQCCLYERGGQRVSWPAIGFLVLAWLFAFVTMIVAAVGVTTWLQFLFCFSYIKLAVTLVKYFPQAYMNFYYKSTEGWSIGNVLLDFTGGSFSLLQMFLQSYNNDQWTLIFGDPTKFGLGVFSIVFDVVFFIQHFCLYRKRP
notes: as for B1
B3: CTNS-Δgydql (Homo sapiens; G309C) (protein)
chain: SVSLTVPPVVKLENGSSTNVSLTLRPPLNATLVITFEITFRSKNITILELPDEVVVPPGVTNSSFQVTSQNVGQLTVYLHGNHSNQTGPRIRFLVIRSSAISIINQVIGWIYFVAWSISFYPQVIMNWRRKSVIGLSFDFVALNLTGFVAYSVFNIGLLWVPYIKEQFLLKYPNGVNPVNSNDVFFSLHAVVLTLIIIVQCCLYERGGQRVSWPAIGFLVLAWLFAFVTMIVAAVGVTTWLQFLFCFSYIKLAVTLVKYFPQAYMNFYYKSTEGWSIGNVLLDFTGCSFSLLQMFLQSYNNDQWTLIFGDPTKFGLGVFSIVFDVVFFIQHFCLYRKRP
notes: as for B1
B4: CTNS-Δgydql (Homo sapiens; S270T) (protein)
chain: SVSLTVPPVVKLENGSSTNVSLTLRPPLNATLVITFEITFRSKNITILELPDEVVVPPGVTNSSFQVTSQNVGQLTVYLHGNHSNQTGPRIRFLVIRSSAISIINQVIGWIYFVAWSISFYPQVIMNWRRKSVIGLSFDFVALNLTGFVAYSVFNIGLLWVPYIKEQFLLKYPNGVNPVNSNDVFFSLHAVVLTLIIIVQCCLYERGGQRVSWPAIGFLVLAWLFAFVTMIVAAVGVTTWLQFLFCFTYIKLAVTLVKYFPQAYMNFYYKSTEGWSIGNVLLDFTGGSFSLLQMFLQSYNNDQWTLIFGDPTKFGLGVFSIVFDVVFFIQHFCLYRKRP
notes: as for B1
B5: CTNS WT (human cystinosin with GYDQL motif) (Homo sapiens) (protein)
chain: SVSLTVPPVVKLENGSSTNVSLTLRPPLNATLVITFEITFRSKNITILELPDEVVVPPGVTNSSFQVTSQNVGQLTVYLHGNHSNQTGPRIRFLVIRSSAISIINQVIGWIYFVAWSISFYPQVIMNWRRKSVIGLSFDFVALNLTGFVAYSVFNIGLLWVPYIKEQFLLKYPNGVNPVNSNDVFFSLHAVVLTLIIIVQCCLYERGGQRVSWPAIGFLVLAWLFAFVTMIVAAVGVTTWLQFLFCFSYIKLAVTLVKYFPQAYMNFYYKSTEGWSIGNVLLDFTGGSFSLLQMFLQSYNNDQWTLIFGDPTKFGLGVFSIVFDVVFFIQHFCLYRKRPGYDQLN
notes: full-length, untagged, plasmid p416TEF (TEF-CTNS, ABE 3006), expressed in S. cerevisiae vps1Δvps17Δ; uptake across plasma membrane

Substrate: N[C@@H](CSSC[C@H](N)C(=O)O)C(=O)O
Assay: cells, lysate or membranes
Type: cell-based, Homo sapiens
Conditions: pH 5.5 (MES), 2% glucose, 30 °C, vps1Δvps17Δ yeast, labelled compound

Row | Molecule | Km
1 | B1 | 97.3 ± 30.9 µM
2 | B2 | 130.4 ± 10.9 µM
3 | B3 | 124.8 ± 23.5 µM
4 | B4 | 207.2 ± 41.5 µM
5 | B5 | 400 ± 133 µM

Test system: T1, N[C@@H](CSSC[C@H](N)C(=O)O)C(=O)O
T1 construct: lacks C-terminal GYDQLN (lysosomal targeting motif; Y363 and L366), untagged, p416TEF (ABE 3513), expressed in S. cerevisiae vps1Δvps17Δ (ABC 5017)
Assay: cells, lysate or membranes
Type: cell-based, Homo sapiens
Conditions: pH 5.5 (MES), 2% glucose, 30 °C, vps1Δvps17Δ yeast, labelled compound

Row | Molecule | Km
6 | CTNS-Δgydql (Homo sapiens; DEL362-367) | 254.4 ± 61 µM
